Measurements as given in US20110217318A1 (MOCHIDA PHARMACEUTICAL, published 2011).

Each binder was assayed against T1, human GPVI extracellular region-human Fc fusion protein (hGPVI-hFc) (human) (assay: SPR BIACORE 3000 as in Example 5).
T1 construct: Expressed in COS-1, purified on Protein A; also called GPVI-HHH-hFc; hGPVIHHH-hFc
T1 sequence (chain, as listed by the source limits assumed): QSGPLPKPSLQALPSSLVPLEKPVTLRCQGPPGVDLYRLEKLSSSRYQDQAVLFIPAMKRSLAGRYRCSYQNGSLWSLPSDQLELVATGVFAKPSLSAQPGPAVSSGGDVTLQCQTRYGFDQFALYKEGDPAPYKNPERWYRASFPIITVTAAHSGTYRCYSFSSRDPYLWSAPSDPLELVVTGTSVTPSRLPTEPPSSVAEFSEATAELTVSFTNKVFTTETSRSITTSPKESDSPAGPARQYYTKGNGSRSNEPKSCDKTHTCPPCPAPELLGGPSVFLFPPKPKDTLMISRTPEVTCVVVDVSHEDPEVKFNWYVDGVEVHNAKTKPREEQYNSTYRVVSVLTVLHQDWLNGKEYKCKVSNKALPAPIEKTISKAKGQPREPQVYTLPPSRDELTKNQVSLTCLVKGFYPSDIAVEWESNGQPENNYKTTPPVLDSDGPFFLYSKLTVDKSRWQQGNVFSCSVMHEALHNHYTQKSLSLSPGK

Binder | KD (Relative value)
F1249-18-2 (antibody, V domains shown, mouse hybridoma monoclonal antibody) VH: QVQLQQPGAELVKPGASVKLSCKASGYTFTSYWMHWLKQRPGQGLEWIGMIHPNSDITNYNEKFKNKATLTVDKSSSTAYMQLSSLTSEDSAVYYCARSGDYYAMDYWGQGTSVTVSS VL: SIVMTQTPKFLLVSAGDRVTITCKASQSVSNDVAWYQQKPGQSPKLLIYYASNRYTGVPDRFTGSGYGTDFTFTISTVQAEDLAVYFCQQDYSSPPTFGGGTKLEIKR | 0.00103 relative to F1232-37-2 = 1
F1245-4-1 (antibody, V domains shown, mouse hybridoma monoclonal antibody) VH: QVQLQQPGAELVKPGASVKLSCKASGCTFTSYWMHWVKQRPGQGLEWIGMIHPNSDNTNYNEKFKSKATLTVDKSSSTAYMHLSSLTSEDSAVYYCATHYYDYVDYWGQGTTLTVSS VL: NIVMTQTPKFLLVSAGDRVTITCKASQSVSNDVAWYQQKPGQSPKLLIYYASNRYTGVPDRFTGSGYGTDFTFTISTVQAEDLAVYFCQQDYSSPWTFGGGTKLEIKR | 0.00427 relative to F1232-37-2 = 1
F1245-5-1 (antibody, V domains shown, mouse hybridoma monoclonal antibody) VH: QVQLQQPGAELVKPGASVKLSCKASGYTFISYWMHWVKQRPGQGLEWIGMIHPNSGSTHYNEKFKSKATLTVDKSSSTAYMQLSSLTSEDSAVYYCARGGVTPVAYWGQGTLVTVSA VL: SIVMTQTPKFLLVSAGDRVTITCKASQSVSNDVAWYQQKPGQSPKLLIYYASNRYTGVPDRFTGSGYGTDFTFTISTVQAEDLAVYFCQQDYSSPWTFGGGTKLEIKR | 1.43 relative to F1232-37-2 = 1
F1245-6-2 (antibody, V domains shown, mouse hybridoma monoclonal antibody) VH: QVQLQQPGAELVKPGASVKLSCKASGYTFTSYWMHWVKQRPGQGLEWIGMIHPNSGSTNYNEKFKSKATLTVDKSSSTAYMQLSSLTSEDSAVYYCARGGVTPVAYWGQGTLVTVSA VL: SIVMTQTPKFLLVSAGDRVTITCKASQSVSNDVAWYQQKPGQSPKLLIYYASNRYTGVPYRFTGSGYGTDFTFTISTVQAEDLAVYFCQQDYSSPWTFGGGTKLEIKR | 0.122 relative to F1232-37-2 = 1
F1249-5-1 (antibody, V domains shown, mouse hybridoma monoclonal antibody) VH: QVQLQQPGAELVKPGASVKLSCKASGYTFTSYWMHWLKQRPGQGLEWIGMIHPNSDITNYNEKFKNKATLTVAKSSSTAYMQLSSLTSEDSAVYYCARLGDYYAMDYWGQGTSVTVSS VL: SIVMTQTPKFLLVSAGDRVTITCKASQSVSNDVTWYQQKPGQSPKLLIYYASNRYTGVPDRFTGSGYGTDFTFTISTVQAEDLAVYFCQQDYSSPPTFGGGTKLEIKR | 0.00285 relative to F1232-37-2 = 1
F1246-1-1 (antibody, V domains shown, mouse hybridoma monoclonal antibody) VH: EVQLVESGGDLVKPGGSLKLSCAASGFTFSSYGMSWVRQTPDKRLEWVATISNGGTYTYYPDSVKGRFTISRDNAKNTLYLQMSSLKSDDTAMYYCGRLRDYYAMDYWGQGTSVTVSS VL: DIVLTQSPASLAVSLGQRATISCRASESVDSYGNSFMHWYQQKPGQPPKLLIYRASNLESGIPARFSGSGSRTDFTLTINPVEADDVATYYCQQSNEDPWTFGGGTKLEIKR | 0.884 relative to F1232-37-2 = 1
F1249-3-2 (antibody, V domains shown, mouse hybridoma monoclonal antibody) VH: EVQLVESGGGLVKPGGSLKLSCAASGFTFSSYGMSWVRQTPDKRLEWVATISSGGSYTYYSDSVKGRFTISRDNAKNNLYLQLSSLKSQDTAIYYCARDSGYFDYWGQGTTLTVSS VL: NIVLTQSPASLAVSLGQRATISCRASESVDSYGNSFMHWYQQKPGQPPKLLIYLASNLESGVPARFSGSGSRTDFTLTIDPVEADDAATYYCQQNNEDPRTFGGGTKLEIKR | 1.59 relative to F1232-37-2 = 1
F1249-20-1 (antibody, V domains shown, mouse hybridoma monoclonal antibody) VH: QVQLQQSGAELVRPGVSVKISCKGSGYTFTDYAMHWVKQSHAKSLEWIGVISTYYGDTSYNQKFKGKATMTVDKSSSTAYMELARLTSEDSAIYYCARAEDYDPWFAYWGQGTLVTVSA VL: DIVLTQSPASLAVSLGQRATISCRASESVDSYGNSFMYWYQQKPGQPPKLLIYRASNLESGIPARFSGSGSRTDFTLTINPVEADDVATYYCQQSDEDPLTFGAGTKLELKR | 0.00205 relative to F1232-37-2 = 1
F1249-24-1 (antibody, V domains shown, mouse hybridoma monoclonal antibody) VH: QVQLQQSGAELVRPGVSVKISCKGSGYTFTDYAMHWVKQSHAKSLEWIGVISTYYGDTSYNQKFKGKATMTVDKSSSTAYMELARLTSEDSAIYYCARAEDYDPWFAYWGQGTLVTVSA VL: DIVLTQSPASLAVSLGQRATISCRASESVDSYGNSFMHWYQQKPGQPPKLLIYRASNLESGIPARFSGSGSRTDFTLTINPVEADDVATYYCQQSDEDPLTFGAGTKLELKR | 0.00821 relative to F1232-37-2 = 1
F1249-30-1 (antibody, V domains shown, mouse hybridoma monoclonal antibody) VH: QVQLQQSGAELVRPGVSVKISCKGSGYTFTDYAMHWVKQSHAKSLEWIGVISTYYGDTSYNQKFKGKAAMTVDKSSSTAYMELARLTSDDSAIYYCARAEDYDPWFAYWGQGTLVTVSA VL: DIVLTQSPASLAVSLGQRATISCRASESVDSYGNSFMHWYQQKPGQPPKLLIYRASNLESGIPARFSGSGSRTDFTLTINPVEADDVATYYCQQSDEDPLTFGAGTKLELKR | 0.347 relative to F1232-37-2 = 1
F1249-22-1 (antibody, V domains shown, mouse hybridoma monoclonal antibody) VH: QVQLQQPGAELVKPGASVKLSCKASGYTFTSYWMQWVKERPGQGLEWIGEIDPSDSYTNYNQKFKGKATLTVDTSSSTACMQLSSLTSEDSAVYYCARGAITTATLDYWGQGTTLTVSS VL: not shown | 2.06 relative to F1232-37-2 = 1
F1251-1-1 (antibody, V domains shown, rat hybridoma monoclonal antibody) VH: QVNLLQSGAALVKPGASVKLSCKASGYTFTDYYIHWVKQSHGKSLEWIGYINPNSGYTNYNEKFKSKATLTVDKSTNTAYMELSRLTSEDSATYYCTRCNSGYGDWFAYWGQGTLLTVSS VL: DIQMTQSPPVLSASVGDRVTLSCKASQNINKNLDWYQQKHGEAPKLLIYYTNNLQTDIPSRFSGSGSGTDYTLTISSLQPEDVATFYCYQYNSGPGTFGAGTKLELKR | 7.9 relative to F1232-37-2 = 1
F1257-3-1 (antibody, V domains shown, rat hybridoma monoclonal antibody) VH: QVTLKESGPGMLQPSKTLSLTCSFSGFSLSTSGMVVSWIRQPSGKSLEWLAAIDWDGDKYYNPSLKSRLTVSKDTSNTQVFLKISSVDIADTATYYCARTPYYGYKEAYYFDYWGQGVKVTVSS VL: DIQMTQSPASLSASLEEIVTITCKASRAIDDYLSWYQQKPGKSPQLLIYDATSLADGVPSRFSGSRSGTQYSLKISRPQVDDSGIYYCLQSYSTPWTFGGGTKLDLKR | 0.00298 relative to F1232-37-2 = 1
F1245-7-1 (antibody, V domains shown, mouse hybridoma monoclonal antibody) VH: QVQLQQPGAELVKPGASVKLSCKASGYTFTSYWMHWVKQRPGQGLEWIGMIHPNSGSTNYNEKFKSKATLTVDKSSSTAYMQLSSLTSEDSAVYYCASPVTAVVEYYFDYWGQGTTLTVSS VL: SIVMTQTPKFLLVSAGDRVTITCKASQSVSNDVAWYQQKPGQSPKLLIYYASNRYTGVPDRFTGSGYGTDFTFTISTVQAEDLAVYFCQQDYSSLTFGSGTKLEIKR | 0.00293 relative to F1232-37-2 = 1

What follows are binders tested against T1, human GPVI extracellular region-human … (assay: SPR BIACORE 3000, hGPVI-hFc on CM5 chip, 0-800 nM, 1:1 binding fit).
Protocol: (§1) Dissociation constant for F1232-37-2 (whole antibody) prepared in EXAMPLE 2, and F(ab′)2 and Fab prepared in 22-1 and 21-2 was measured with Protein Interaction Analyzer BIACORE® 3000 (BIACORE). That is, hGPVI-hFc prepared in EXAMPLE 1 was coupled to sensorchip CM5 (BIACORE) according to the manual. Then a series of dilution from 0 to 800 nM of each antibody was prepared with HBS-EP buffer (BIACORE) and analyzed with BIACORE® 3000. After completion of antibody binding, chip was regenerated with glycine buffer (pH 1.5) (BIACORE). Regarding the results of whole antibody and F(ab′)₂, evaluation software Bivalent analyte (BIACORE) was used for analysis; 1:1 Binding for Fab analysis. Then the dissociation constant was calculated. As a result, dissociation constant of F1232-37-2 F(ab′)2 and Fab was about 0.7 and 0.6, respectively, when that of whole antibody defined as one.

Binder | dissociation constant relative to whole antibody
F1232-37-2 Fab (Fab, V domains shown, Fab made from the mouse antibody with papain) VH: VQLQQSGPELVRPGESVKISCKGSGYTFTDYAIHWVKLSHAKSLEWIGVISIYYDDTNYNQKFKGKATMTVDKSSSTAYLELARLTSEDSAIYYCARRRDSSGPYAMDYWGQGTSVTVSS VL: DIVLTQSPASLAVSLGQRATISCRASESVDSYGNSFMHWYQQKPGQPPKLLIYRASNLESGIPARFSGSGSRTDFTLTINPVEADDVATYYCQQSNEDPYTFGGGTKLEIKR | ~0.6 relative to whole F1232-37-2 = 1

These binders were tested against T1, human GPVI extracellular region-human … (assay: SPR BIACORE 3000, hGPVI-hFc on CM5 chip, 0-800 nM, bivalent analyte fit).
Protocol: as §1

Binder | dissociation constant relative to whole antibody
F1232-37-2 F(ab')2 (other, F(ab')2 made from the mouse antibody with lysyl endopeptidase) VH: VQLQQSGPELVRPGESVKISCKGSGYTFTDYAIHWVKLSHAKSLEWIGVISIYYDDTNYNQKFKGKATMTVDKSSSTAYLELARLTSEDSAIYYCARRRDSSGPYAMDYWGQGTSVTVSS VL: DIVLTQSPASLAVSLGQRATISCRASESVDSYGNSFMHWYQQKPGQPPKLLIYRASNLESGIPARFSGSGSRTDFTLTINPVEADDVATYYCQQSNEDPYTFGGGTKLEIKRADAA | ~0.7 relative to whole F1232-37-2 = 1

The binders below were run against T1, human GPVI extracellular region-human … (assay: binding to antigen of co-expressed chains; antigen construct not named).

Binder | binding result
humanized F1232-37-2: Eu-HC with REI-KA (antibody, human IgG4, V domains shown, human IgG4 heavy and kappa light constant regions) VH: QVQLVQSGAEVKKPGSSVKVSCKASGGTFSDYAIHWVRQAPGQGLEWIGVISIYYDDTNYNQKFKGKATITADESTNTAYMELSSLRSEDTAIYYCARRRDSSGPYAMDYWGQGTLVTVSS VL: DIQMTQSPSSLSASVGDRVTITCRASESVDSYGNSFMHWYQQKPGKAPKLLIYRASNLESGVPSRFSGSGSGTDFTFTISSLQPEDIATYYCQQSNEDPYTFGQGTKVEIKR | binds
humanized F1232-37-2: Eu-HC with Eu-KA (antibody, human IgG4, V domains shown, human IgG4 heavy and kappa light constant regions) VH: QVQLVQSGAEVKKPGSSVKVSCKASGGTFSDYAIHWVRQAPGQGLEWIGVISIYYDDTNYNQKFKGKATITADESTNTAYMELSSLRSEDTAIYYCARRRDSSGPYAMDYWGQGTLVTVSS VL: DIQMTQSPSTLSASVGDRVTITCRASESVDSYGNSFMHWYQQKPGKAPKLLMYRASNLESGVPSRFIGSGSGTEFTLTISSLQPDDFATYYCQQSNEDPYTFGQGTKVEVKR | binds
